Reference: publication PMC2532734

Tests used:
Assay in all cases: NMR 15N-HSQC titration
KSRP KH3 [1] = molecular target: T1, KSRP KH3 (UniProt Q92945 323-418)
T1 sequence: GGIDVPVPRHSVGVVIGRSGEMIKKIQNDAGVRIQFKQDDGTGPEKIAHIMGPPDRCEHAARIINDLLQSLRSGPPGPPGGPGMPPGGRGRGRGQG

KSRP KH3 [2] = molecular target: T1, KSRP KH3; remark: listed apart in the source
KSRP KH1 = molecular target: T2, KSRP KH1 (UniProt Q92945 130-218)
T2 sequence: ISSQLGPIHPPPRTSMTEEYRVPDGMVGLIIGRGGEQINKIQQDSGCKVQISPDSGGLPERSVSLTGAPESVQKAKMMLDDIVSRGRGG

KSRP KH2 = molecular target: T3, KSRP KH2 (UniProt Q92945 233-305)
T3 sequence: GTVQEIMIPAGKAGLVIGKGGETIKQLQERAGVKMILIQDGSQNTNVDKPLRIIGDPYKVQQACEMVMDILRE

KSRP KH4 = molecular target: T4, KSRP KH4 (UniProt Q92945 423-525)
T4 sequence: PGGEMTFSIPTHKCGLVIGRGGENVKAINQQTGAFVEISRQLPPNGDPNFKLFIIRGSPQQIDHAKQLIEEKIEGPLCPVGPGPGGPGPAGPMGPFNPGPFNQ

KSRP KH3 [3] = molecular target: T1, KSRP KH3; remark: listed apart in the source

UAGUAU (ssRNA)
Kd (KSRP KH3 [1]): 26 ± 5 µM

UAGGUU (ssRNA) [UAGGUU (UAGGUA in Fig 4b legend)]
Kd (KSRP KH3 [1]): 6 ± 2 µM

UCCCC (ssRNA) [uCCCC]
binding result (KSRP KH3 [2]): no binding | binding result (KSRP KH1): no binding | binding result (KSRP KH2): no binding | binding result (KSRP KH4): no binding

UAUUAU (ssRNA)
binding signal (KSRP KH3 [3]): ~100 fold weaker than UGGGU
